The values that follow come from patent publication US20160040149A1, “Compositions Having Dicamba Decarboxylase Activity and Methods of Use” (priority 2013, published 2016).

Series [1] in a line: GC/MS detection of 2,5-DCP. Type of series: biochemical. The note with it: purified protein, dicamba substrate. As to the method: The decarboxylated and demethylated product of dicamba, 2,5-dichloro phenol or 2,5-DCP (FIG. 1E) is measured using a GC/MS analytical procedure with either liquid injection after liquid/liquid extraction using toluene as the extraction solvent or gas injection using head space method. The head space sample analysis is carried out on an Agilent GC/MS system with a 6890A GC, a 5973N MSD and a CTC CombiPAL auto-sampler or with a 7890A GC, a 5975C MSD and an Agilent GC Sampler 80 auto-sampler with Phenomenex ZB-MultiResidue-1 column (30 m length, 0.25 mm diameter, 0.25 um film) or equivalent. GC/MS parameters are: GC inlet temperature, 200° C.; Carry gas, helium in constant flow mode (1.2 mL/min); Oven temperature program, 70° C. for 1 min and then ramp to 275° C. at 40° C./min. Protein reactions are carried out in a 1.5 ml 12×32 mm glass vials for head space analysis as described previously. The reaction vial is transferred to a agitator for incubation at 90° C. for 4 min at 500 rpm. With a syringe preheated at 110° C., 1000 uL of head space is injected with sample fill speed at 100 uL/sec. A 2-mm diameter liner is used in sample inlet. The MS data acquisition is done in SIM (selected ion monitoring) mode. The positive ion at M/Z 162 for the molecular ion of 2,-5-DCP is monitored at retention time of 4.06 min. Solvent delay for MS acquisition is set at 3 min. […]

Series [2] in a line: Saturation mutagenesis of SEQ ID NO:109: dicamba decarboxylation activity of point mutants (CO2 released), fold of backbone (Tables 7, 8, Megatable 1). The note with it: decarboxylation activity (CO2 released) of point mutant vs unmutated backbone protein; backbone SEQ ID NO: 109.
A short description of series [3]: GC/MS detection of decarboxylation product 2,5-DCA (toluene trapping or head space). Type of series: biochemical. The settings on record: purified protein, dicamba substrate. As to the method:
Alternatively, dicamba decarboxylase activity can be monitored by measuring decarboxylation products other than CO2 using product detection methods. The decarboxylation product of dicamba, 2,5-dichloro anisole or 2,5-DCA (FIG. 1C), is a volatile compound with a flash point of 21° C. To capture this volatile compound for detection, 140 ul of toluene solution is added on top of 1 ml reaction mixture to form a trapping layer in a 1.5 ml eppendorf tube. […] The reaction is kept still at room temperature overnight before being vortex mixed and centrifuged at 14,000 rpm for 15 minutes. The top toluene phase is carefully removed using a micropipette and transferred into a 12×32 mm polypropylene vial (Vial 11 mm) from MicroLiter Analytical Supplies, Inc. (catalog number 11-5300-100). The vial is sealed with Crimp seal (11 mm with FEP/Nat Rubber) from MicroLiter Analytical Supplies, Inc. (catalog number 11-0020A) using a E-Z Crimper™ 11 mm from Wheaton Inc. lul of the toluene mixture is taken from the sealed vials and injected in splitless mode into a GC/MS system for sample analysis (Agilent GC/MS system with a 6890A GC, a 5973N MSD and a CTC CombiPAL auto-sampler or with a 7890A GC, a 5975C MSD and an Agilent GC Sampler 80 auto-sampler). The GC parameters are: Agilent DB-5MS column (30 m length, 0.25 mm diameter, 0.25 um film) or equivalent; The GC inlet temperature, 250° C.; Carry gas, helium in constant flow mode (1.2 mL/min); The GC oven temperature program, initial temperature at 70° C. for 1 min, ramping to 200° C. at 15° C./min, and then ramping to 250° C. at 30° C./min. MS data acquisition is done in SIM (selected ion monitoring) mode, monitoring the positive ion at M/Z 176 for the molecular ion of […]. The solvent delay for MS acquisition is set at 4 min. Another method for detection of 2,5-DCA is a head-space GC/MS method. Briefly, reaction mixtures in 500 ul reaction volume are prepared in 1.5 ml 12×32 mm glass vials (Microliter Analytical Supplies, Cat#11-1200) for head space analysis. Glass vials are sealed with magnetic cap from MicroLiter Analytical Supplies, Inc. (catalog number 11-0030AT) using a E-Z Crimper™ 11 mm from Wheaton Industries Inc. The reaction is carried out at room temperature for various amount of time and stopped by heating at 95° C. for 5 min. The reaction vial is transferred to a agitator for incubation at 80° C. for 5 min at 500 rpm. With a syringe preheated at 80° C., 1000 uL of head space is injected with sample fill speed at 100 uL/sec. GC/MS parameters for headspace analysis are the same as for liquid sample analysis.

Series [4] can be described thus: LC-MS/MS detection of 4-chloro-3-methoxy phenol. In kind it is biochemical. The settings on record: purified protein, dicamba substrate. As to the method: The decarboxylated and chloro hydrolyzed product, 4-chloro-3-methoxy phenol (FIG. 1D), is measured using a LC-MS/MS analytical procedure. […] 10 ul is removed from the reaction mixture and mixed with 90 ul pre-chilled methanol followed by centrifugation at 14,000 rpm for 15 min at 4° C. 10 ul of the supernatant is then transferred into 170 ul ddH2O to achieve 5% methanol solution for injection. 50 ul of the prepared sample is injected into a 4000 Q Trap LC-MS/MS system for sample analysis. LC-MS/MS parameters are: Mobile Phase A, 2 mM ammonium acetate in water; Mobile Phase B, 2 mM ammonium acetate in methanol; Column, Aquasil, 100×2.1 mm, 3 μm, C18 column; Flow Rate, 0.6 ml/min. The MS/MS fragment 157/142 which is common to 4-chloro-3-methoxy phenol, 2-chloro-5-methoxy phenol, and 3-chloro-5-methoxy phenol is monitored at a retention time of 2.88 min.

The nature of series [5]: Dicamba decarboxylase activity / product analysis with purified His-tag protein (14C assay and product detection of Example 1). Type of series: biochemical. The note with it: statement of the description. As to the method: To obtain purified protein for activity assays, IPTG-induced cells were harvested by centrifugation at 7,000 rpm for 10 mins Cell pellet from 50 mL of cell culture was frozen and thawed twice and then lysed in 8004 lysis buffer consisting of 50 mM potassium phosphate buffer (pH7.0), 50 μM ZnSO4, 5% EG, 50 mM KCl, 1 mM DTT, 0.2 mg/ml lysozyme, 1/200 protease inhibitor cocktail (EMD set3, EDTA free), and 1/2,000 endonuclease. Lysate was then centrifuged at 13,000 rpm for 45 min at 4° C. Supernatant was loaded onto 200 μL Ni-NTA columns pre-equilibrated with 10 mM His Buffer containing 25 mM potassium phosphate buffer pH7, 50 μM ZnSO4, 5% EG, 200 mM KCl, and 10 mM histidine. The columns were let sit at 4° C. until the entire supernatant passed through. Each column was then washed with 200 ul 10 mM His Buffer twice and then 4 times with 800 ul loading buffer consisting of 25 mM potassium phosphate buffer pH7, 50 μM ZnSO4, 5% EG, 200 mM KCl. Protein was eluted with 1504 of Elution Buffer consisting of 25 mM potassium phosphate buffer pH7, 50 μM ZnSO4, 5% EG, 100 mM KCl, 100 mM histidine, 10% glycerol. The protein concentration was measured by Bradford assay. Purified protein was used for dicamba decarboxylase activity measurement as described in Example 1. Enzyme kinetic characterization of selected dicamba decarboxylases was determined through GC/MS measurement of 2,5-DCP or PEPC coupled assay as described in Example 1.

Bounds are passed on as bounds.

B1: 1 (protein, listed as Rhizobium sp.)
chain: MAQGKVALEEHFAIPETLQDSAGFVPGDYWKELQHRLLDIQDTRLKLMDAHGIETMILSLNAPAVQAIPDRRKAIEIARRANDVLAEECAKRPDRFLAFAALPLQDPDAATEELQRCVNDLGFVGALVNGFSQEGDGQTPLYYDLPQYRPFWGEVEKLDVPFYLHPRNPLPQDSRIYDGHPWLLGPTWAFAQETAVHALRLMASGLFDEHPRLNIILGHMGEGLPYMMWRIDHRNAWVKLPPRYPAKRRFMDYFNENFHITTSGNFRTQTLIDAILEIGADRILFSTDWPFENIDHASDWFNATSIAEADRVKIGRTNARRLFKLDGA
On to B1, for which, in series [1], the “relative amount of 2,5-DCP compared to CO2 formation (100%)” value is over 80%. Also, in series [2], the “Fold Activity” value worked out at 1.2 fold. Moreover, the “relative amount of 2,5-DCA compared to CO2 formation (100%)” value in series [3] is under 1%. The “relative amount of 4-chloro-3-methoxy phenol compared to CO2 formation (100%)” value in series [4] was under 10%. In addition, the dicamba decarboxylase activity entry in series [5] was “native dicamba decarboxylase activity”.
